Reference: publication PMC12505888, “Inhibitory activities of monoclonal antibodies against Staphylococcus aureus clumping factor A” (mBio, 2025)

What was measured:
[1] = target: A domain of S. aureus Newman ClfA (clumping factor A), residues 40-559 (Staphylococcus aureus Newman) (UniProt Q53653); assay: ELISA; ClfA-A Newman immobilised (100 ng per well); serial dilutions of human complement factor I (20 μg/mL); detected with rabbit anti-factor I polyclonal antibody and anti-rabbit HRP
[2] = target: A domain of ClfA from S. aureus strain WU1 (Staphylococcus aureus WU1); assay: ELISA; ClfA-A proteins immobilised (100 ng per well, carbonate/bicarbonate buffer pH 9.6, 4°C overnight); serial dilutions of soluble human fibrinogen (4 mg/mL) in PBS; bound fibrinogen detected with anti-human fibrinogen-HRP, A450
[3] = target: A domain of ClfA from S. aureus strain USA300 LAC (Staphylococcus aureus USA300 LAC); assay: as above
[4] = target: A domain of ClfA from S. aureus strain N315 (Staphylococcus aureus N315) (UniProt Q99VJ4); assay: as above
[5] = target: Human von Willebrand factor (human) (UniProt P04275); assay: ELISA; human vWF immobilised (100 ng per well); serial dilutions of recombinant ClfA-A (20 μg/mL) or recombinant vWbp (5 μg/mL); detected with anti-StrepII or anti-His HRP antibody
[6] = target: Human von Willebrand factor (human) (UniProt P04275); assay: ELISA; human vWF immobilised; vWbp with ClfA-A carrying only His tag added to the reaction; bound vWbp assessed with anti-StrepII antibody
[7] = target: T1, A domain of S. aureus Newman ClfA (clumping factor A), residues 40-559 (Staphylococcus aureus Newman, UniProt Q53653 40-559); assay: ELISA; ClfA-A proteins immobilised (100 ng per well, carbonate/bicarbonate buffer pH 9.6, 4°C overnight); serial dilutions of soluble human fibrinogen (4 mg/mL) in PBS; bound fibrinogen detected with anti-human fibrinogen-HRP, A450; settings: both partners purified
T1 construct: Cloned in pET15b (NdeI/BamHI); also called ClfA-A; ClfA-A Newman; source: E. coli BL21, purified (Ni-NTA resin followed by Streptactin resin); not shown: His6, N-terminal, kept
T1 sequence: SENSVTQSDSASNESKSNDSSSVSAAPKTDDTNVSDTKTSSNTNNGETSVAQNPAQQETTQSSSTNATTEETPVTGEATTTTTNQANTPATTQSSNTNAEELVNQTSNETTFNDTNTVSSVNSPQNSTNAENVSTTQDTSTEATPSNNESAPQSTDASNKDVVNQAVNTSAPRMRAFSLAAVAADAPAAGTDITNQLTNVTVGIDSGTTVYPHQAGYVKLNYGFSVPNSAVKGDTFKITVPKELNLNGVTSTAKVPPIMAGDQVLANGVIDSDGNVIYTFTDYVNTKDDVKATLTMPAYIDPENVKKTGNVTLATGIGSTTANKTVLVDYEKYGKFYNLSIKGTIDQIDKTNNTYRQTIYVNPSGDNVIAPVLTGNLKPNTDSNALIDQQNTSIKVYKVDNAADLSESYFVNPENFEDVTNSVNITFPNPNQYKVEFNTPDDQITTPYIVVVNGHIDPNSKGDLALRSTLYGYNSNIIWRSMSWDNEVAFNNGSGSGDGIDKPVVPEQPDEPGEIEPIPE

With Human complement factor I (enzyme) the EC50 [1] was 1800 nM.

For “Human fibrinogen (from UniProt P02671-2 20-644; P02675 31-491; P02679-2 27-437) (complex)”, the EC50 [2] was 1100 nM, the EC50 [3] was 1000 nM and the EC50 [4] was 1300 nM.

For “von Willebrand binding protein (vWbp) of S. aureus Newman, recombinant (natural protein)”, the EC50 [5] was 14500 nM.

Work on “vWbp + ClfA-A Newman (from UniProt Q53653 40-559) (complex)” yielded an EC50 [6] of 3500 nM.

B1: Human fibrinogen (complex)
chain 1: ADSGEGDFLAEGGGVRGPRVVERHQSACKDSDWPFCSDEDWNYKCPSGCRMKGLIDEVNQDFTNRINKLKNSLFEYQKNNKDSHSLTTNIMEILRGDFSSANNRDNTYNRVSEDLRSRIEVLKRKVIEKVQHIQLLQKNVRAQLVDMKRLEVDIDIKIRSCRGSCSRALAREVDLKDYEDQQKQLEQVIAKDLLPSRDRQHLPLIKMKPVPDLVPGNFKSQLQKVPPEWKALTDMPQMRMELERPGGNEITRGGSTSYGTGSETESPRNPSSAGSWNSGSSGPGSTGNRNPGSSGTGGTATWKPGSSGPGSTGSWNSGSSGTGSTGNQNPGSPRPGSTGTWNPGSSERGSAGHWTSESSVSGSTGQWHSESGSFRPDSPGSGNARPNNPDWGTFEEVSGNVSPGTRREYHTEKLVTSKGDKELRTGKEKVTSGSTTTTRRSCSKTVTKTVIGPDGHKEVTKEVVTSEDGSDCPEAMDLGTLSGIGTLDGFRHRHPDEAAFFDTASTGKTFPGFFSPMLGEFVSETESRGSESGIFTNTKESSSHHPGIAEFPSRGKSSSYSKQFTSSTSYNRGDSTFESKSYKMADEAGSEADHEGTHSTKRGHAKSRPVRGIHTSPLGKPSLSP
chain 2: QGVNDNEEGFFSARGHRPLDKKREEAPSLRPAPPPISGGGYRARPAKAAATQKKVERKAPDAGGCLHADPDLGVLCPTGCQLQEALLQQERPIRNSVDELNNNVEAVSQTSSSSFQYMYLLKDLWQKRQKQVKDNENVVNEYSSELEKHQLYIDETVNSNIPTNLRVLRSILENLRSKIQKLESDVSAQMEYCRTPCTVSCNIPVVSGKECEEIIRKGGETSEMYLIQPDSSVKPYRVYCDMNTENGGWTVIQNRQDGSVDFGRKWDPYKQGFGNVATNTDGKNYCGLPGEYWLGNDKISQLTRMGPTELLIEMEDWKGDKVKAHYGGFTVQNEANKYQISVNKYRGTAGNALMDGASQLMGENRTMTIHNGMFFSTYDRDNDGWLTSDPRKQCSKEDGGGWWYNRCHAANPNGRYYWGGQYTWDMAKHGTDDGVVWMNWKGSWYSMRKMSMKIRPFFPQQ
chain 3: YVATRDNCCILDERFGSYCPTTCGIADFLSTYQTKVDKDLQSLEDILHQVENKTSEVKQLIKAIQLTYNPDESSKPNMIDAATLKSRKMLEEIMKYEASILTHDSSIRYLQEIYNSNNQKIVNLKEKVAQLEAQCQEPCKDTVQIHDITGKDCQDIANKGAKQSGLYFIKPLKANQQFLVYCEIDGSGNGWTVFQKRLDGSVDFKKNWIQYKEGFGHLSPTGTTEFWLGNEKIHLISTQSAIPYALRVELEDWNGRTSTADYAMFKVGPEADKYRLTYAYFAGGDAGDAFDGFDFGDDPSDKFFTSHNGMQFSTWDNDNDKFEGNCAEQDGSGWWMNKCHAGHLNGVYYQGGTYSKASTPNGYDNGIIWATWKTRWYSMKKTTMKIIPFNRLTIGEGQQHHLGGAKQAGDV
notes: Fibrinogen A-alpha chain, human; Fibrinogen B-beta chain, human; Fibrinogen gamma chain, human; also called Fg; source: bought: Sigma; copies: 2 + 2 + 2
Work on B1 yielded an EC50 [7] of 1300 nM.
